Test results: the RNAGym collection of RNA variant scans (doi:10.1073/pnas.2313332121)

B1: TPR t1 (parent)
chain: GACCAAUCUGCCCUCAGAGCUCGAGAACAUCUUCGGAUGCAGAGGAGGCAGGCUUCGGUGGCGCGAUAGCGCCAACGUCCUCAACCUCCAAUGCAUCCCACCACAUGAUGAUGCCUGAAGAGCCUUGGUUUUUUG

Variants of: B1
Experiment: polymerase ribozyme fitness, log enrichment relative to wild type (log ratio); higher = more active; in vitro selection for triplet polymerase activity
Outline: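 Streptavidin-bead capture of gel-excised extended constructs, followed by RT-PCR, closed a single triplicate in vitro selection round. That round began by annealing PCR-built, transcribed mutant libraries of each subunit of a heterodimeric triplet polymerase ribozyme with a biotinylated primer, the partner subunit and triplets, then incubating them frozen at −7 °C. After Illumina sequencing of inputs and outputs, genotypes needed ≥10 input reads and ≥1 read per output. Fitness is the base-2 logarithm of genotype enrichment over wild-type enrichment, using inverse-variance-weighted replicate averages.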

| Variant | polymerase ribozyme fitness (log ratio) |
| --- | --- |
| G45U C53A A90G C97U | -1.75 |
| G45C U78C C124A | 0.349 |
| G44U G60A U129C | -1.49 |
| G45U G52U U54C G58C G60C | -0.884 |
| G44U C53G G60A A121C | 0.687 |
| G44U C64U | -1.48 |
| G45C G61A U129A | -0.659 |
| G45U C49G C53U C88G | -0.226 |
| G45A A50G C62U | -0.502 |
| G45A G48U C49A C53U C115G | -3.77 |
| G45A U106C | -1.09 |
| G45C U132A | -1.99 |
| G45U C62U U78G C101A G122A | -3.21 |
| G45U A68G | -4.43 |
| G45U C64A A111U U133A | -5.34 |
| G45U C72U | -1.63 |
| G45C G113C | -2.91 |
| G45A U67A C102A G120A | -6.86 |
| G44U A68G U92A A119U C124U | -6.31 |
| G45A C70A C85A U133C | -4.78 |
| G44U U55A A83U | -1.34 |
| G44U G58C G113A | -1.31 |
| G44U C53A C56A A111C | -0.781 |
| G45A U59C C62G | -5.53 |

| Variant | polymerase ribozyme fitness (log ratio) |
| --- | --- |
| G45U C49U | -1.85 |
| G44U C72A G127C U131C | -3.12 |
| G45U G57C A118U | -0.526 |
| G45A G128A | -2.84 |
| G45U C89U U96A C114U C124G | -2.49 |
| G45U C56U C70U A75U | -2.3 |
| G45A C85U U92C G128A | -5.92 |
| G45U G61C A66U | -3.49 |
| G44U G47U C72A U81G G117C | -6.49 |
| G44U A46C G52U G61U C124A | -3.53 |
| G45A G71C C101A C115U G127C | -5.44 |
| G44C U106G G110A A119G | -4.41 |
| G44U C49A A50C G71A | -5.27 |
| G44U A50U G60C C101A C115A | -4.05 |
| G45A C70G G110A | -6.64 |
| G45U G52A U96G | -2.98 |
| G45A A68G U112A | -4.04 |
| G45U G58A C86U A95C | -3.29 |
| G45A A121G | 1.78 |
| G45A C53G A83G G117A | -3.23 |
| G45A C94U | -0.815 |
| G45A C73U | -1.34 |
| G44C U78C C115G C123U | -4.64 |
| G44U G52U U55A U132A | -2.55 |

| Variant | polymerase ribozyme fitness (log ratio) |
| --- | --- |
| G44C G58A A91G U92C | -3.08 |
| G44U A84G G120C U130G | -2.91 |
| G44U G57U C89U C104U | -1.47 |
| G45A G69U U112A | 1.62 |
| G45U A50U G60A C62U | -1.75 |
| G45U C53A C72A C89G | -1.62 |
| G45U C70A G120U G122C | -2.72 |
| G44U G57A C94G | -3.86 |
| G45C G47A C79G | -5.96 |
| G44C U92C C124A | 0.556 |
| G44U G63C C79U U112A | 0.269 |
| G44U G48U | -2.5 |
| G45U C99A G117C | -6.81 |
| G45U C102A | -3.34 |
| G44U U55G G61C A119U | -1.87 |
| G44C U112G | -1.07 |
| G44C G71U | -2.2 |
| G45C U55A A95U C114U | -3.85 |
| G44C U81C U106A | -0.434 |
| G45U C49U C115G | -3.11 |
| G44U C72G U78G C82G | -2.66 |
| G44U C72G U92A C115G | -5.53 |
| G45A G48U U54C C56G G69U U78G G93U C123G U130A | -2.55 |
| G45C C101G G122A | -3.08 |

| Variant | polymerase ribozyme fitness (log ratio) |
| --- | --- |
| G45U C62U | -1.63 |
| G44U A90U | -2.78 |
| G44U C62G G117A | -4.71 |
| G44U A46U C89A | -0.411 |
| G45C C62A A83G A84U | -3.77 |
| G45U A75G U106C A119U A121C U130A | -0.0532 |
| G44C U116C C124A | -0.551 |
| G45U G57U A118U | -0.288 |
| G45U C94U C101G | -3.3 |
| G45A U131G | -0.996 |
| G45A U131A | -0.734 |
| G44U G69U G117C A121C | -4.54 |
| G45A A68U C104U U109C | -6.38 |
| G44U G60C | -0.794 |
| G45U C123A | -0.805 |
| G45U C123G | -0.391 |
| G45A G69A U109G A118C | -6.05 |
| G45A G51A C72U | -3.6 |
| G44U C70A U116C | -4.01 |
| G45A G135U | -1.9 |
| G45U G47C G52A A83U C124U | -3.57 |
| G44U G47A C56A C124U G127C U131A G135C | -3.28 |
| G44U G71A | -2.39 |
| G45A C53A U78C U109G G110U A121U | -3.1 |

| Variant | polymerase ribozyme fitness (log ratio) |
| --- | --- |
| G44C G69A A91G A103C C115U | -5.28 |
| G44U C88A U133G | -1.73 |
| G44U G120U U131A | -1.89 |
| G44U G63U C115G | -3.72 |
| G45C G71U A91G C101U G110A | -5.08 |
| G45A G48C C53U C62U C102U C124G U131C | -1.71 |
| G44C G47U G48A | -1.43 |
| G45U A66G | -2.32 |
| G44U G110A | -2.64 |
| G45C G77A C82G C89G | -3.97 |
| G45A G52C G57U | -2.04 |
| G45A G48U G93A | -3.09 |
| G44U C56U | -0.616 |
| G44U G60C U87G | -2.16 |
| G45A U59G C62G | -3.84 |
| G45C G110C | -5.03 |
| G45A C85U | -1.45 |
| G45A A74G A95U | -1.3 |
| G44U A46U G71U C114G U132A | -4.18 |
| G45C C101A U106C | -2.07 |
| G44C U92G U106A U116A | -6.02 |
| G44U C82A C97A A121U | -3.17 |
| G44U G117A | -2.13 |
| G45A G69A U87A U125A | -3.37 |

| Variant | polymerase ribozyme fitness (log ratio) |
| --- | --- |
| G44U A66U | -2.13 |
| G45A U96G | -1.51 |
| G45C G63C | -2.1 |
| G44U C62A A84U A118G | -4.34 |
| G44C U87A | -1.07 |
| G44U A46C A95G | -3.59 |
| G45A C79G | -1.88 |
| G45A C79U | -1.01 |
| G45U A46C U54C U78C | -2 |
| G45C A75G U96A G113C | -2.91 |
| G45A G113A C115U | -3.5 |
| G45U A50C C56A | -1.55 |
| G45C G48C G69A | -4.32 |
| G45C G113C G135U | -4.16 |
| G45A C56U G69U G93U | -4.17 |
| G45U C101U G113A | -2.93 |
| G45C | -1.57 |
| G45U | -1.31 |
| G45A | -0.788 |
| G45A C72A U92G | -2.71 |
| G44C G77A | -0.814 |
| G44U C53A C56A U67C A111C | -6.43 |
| G45A C88U | -0.289 |
| G44C U81A C89U G110U | -4.45 |

| Variant | polymerase ribozyme fitness (log ratio) |
| --- | --- |
| G44U G45C C62U | -3.45 |
| G45C C73A U81A C88G | -0.576 |
| G44U C114U | -2.25 |
| G44U G69C A121G | 0.0622 |
| G45A C73G C85A | -2.3 |
| G45U C53U G61A A105U | -2.59 |
| G45A G48U C49A C53U G69C C115G | -4.6 |
| G45C C72A G135C | -0.387 |
| G45A G52U U130G | -1.91 |
| G44U C72U C76A C88U U109A | -5.19 |
| G44U C72G C85A | -2.52 |
| G45A G51A C79G C82U C86U U112A C115A | -7.28 |
| G45A C102A G122A | -3.14 |
| G44U C89U A111U | -4.49 |
| G45A G51C | -5.06 |
| G45A C89G U116G | -4.12 |
| G44U C72G C85U U96A A121G C124G | -3.64 |
| G45U C94U A111U G127U | -3.61 |
| G45C C88U | -0.355 |
| G45C C56A | -1.46 |
| G45C C56U | -1.86 |
| G44U C53U | -1.59 |
| G44C G63A C85U G110C | -7.22 |
